Results published in patent US20200231956.

Target: dipeptides with a proline at the second position

B1: aminopeptidase T from Thermus aquaticus, with a Cys added at the N-terminus and a 6xHis at the C-terminus (protein)
chain: MCDAFTENLNKLAELAIRVGLNLEEGQEIVATAPIEAVDFVRLLAEKAYENGASLFTVLYGDNLIARKRLALVPEAHLDRAPAWLYEGMAKAFHEGAARLAVSGNDPKALEGLPPERVGRAQQAQSRAYRPTLSAITEFVTNWTIVPFAHPGWAKAVFPGLPEEEAVQRLWQAIFQATRVDQEDPVAAWEAHNRVLHAKVAFLNEKRFHALHFQGPGTDLTVGLAEGHLWQGGATPTKKGRLCNPNLPTEEVFTAPHRERVEGVVRASRPLALSGQLVEGLWARFEGGVAVEVGAEKGEEVLKKLLDTDEGARRLGEVALVPADNPIAKTGLVFFDTLFDENAASHIAFGQAYAENLEGRPSGEEFRRRGGNESMVHVDWMIGSEEVDVDGLLEDGTRVPLMRRGRWVIHHHHHH
- aminopeptidase assay, cleavage of the N-terminal amino acid: TaqAPT cleaves dipeptides even with a proline at the second position
